Data from patent publication US20230227838A1, “ENHANCED CELL SURVIVAL AGAINST BIOTIC AND ABIOTIC STRESSES THROUGH SALICYLICK ACID-INDUCED NPR1 CONDENSATES” (priority 2020, published 2023).

B1: UGT74F2, UDP-glucosyltransferase 74F2 (protein, UniProt O22822 1-449, looked up)
UDP-glycosyltransferase 74F2: MEHKRGHVLAVPYPTQGHITPFRQFCKRLHFKGLKTTLALTTFVFNSINPDLSGPISIATISDGYDHGGFETADSIDDYLKDFKTSGSKTIADIIQKHQTSDNPITCIVYDAFLPWALDVAREFGLVATPFFTQPCAVNYVYYLSYINNGSLQLPIEELPFLELQDLPSFFSVSGSYPAYFEMVLQQFINFEKADFVLVNSFQELELHENELWSKACPVLTIGPTIPSIYLDQRIKSDTGYDLNLFESKDDSFCINWLDTRPQGSVVYVAFGSMAQLTNVQMEELASAVSNFSFLWVVRSSEEEKLPSGFLETVNKEKSLVLKWSPQLQVLSNKAIGCFLTHCGWNSTMEALTFGVPMVAMPQWTDQPMNAKYIQDVWKAGVRVKTEKESGIAKREEIEFSIKEVMEGERSKEMKKNVKKWRDLAVKSLNEGGSTDTNIDTFVSRVQSK
B2: UBP2, ubiquitin-specific protease 2 (protein, UniProt Q8W4N3 1-961, looked up)
Ubiquitin carboxyl-terminal hydrolase 2: MGKKAKKKARAPTKEIQTMEISKKVSEEPPSQAGEIAEGDVKAVKETQACVHFDKALNLEKVLDKIKSSRQIKCAECNEGVYGKRGTKAKGSKGKKDFSSSDPKSNNKAIWLCLECGCYVCGGVGLPNGPQSHVLRHSRVTRHRLVIQWENPQLRWCFPCQLLLPVEKEDNGEKKDVLSEVVKLIKGRSLNNLASSDIEDQCSGSGSITSDIKLEGAVTSDIEARDGYVVRGLVNLGNTCFFNSIMQNLLSLDRLRDHFLKENGSGVGGPLASSLRKLFTETKPEAGLKSVINPRAFFGSFCSKAPQFRGYDQHDSHELLRCLLDSLSTEESALRKKRGVSDNDEKSTTLIESVFGGETSSIVSCMECGHSSKVYEPFLDLSLPVPFKKSPPKKPQPVSRAKKAKLPPKRVPKNVSKVSKVSKVLPGMVLSELNSSGKSMAVTADSDTSCSSLAPLDNGPVLETPSVLTLDNNQASESASQSDTGFDGSWLDFIGPETSGDETNLDMQEDGIDNVITAEVNQIVPSPNIVANSSVSSGDQTLEGNTERLMQDYEEIAKAEANLDEKDVQAMQSDECPATSGISAEFSQASCIGCDPGIGESSSSVNPWDEEELPLVVADSQILYMPYKEISCNDKSVEGECEASSSFVTGDHEPQNSDFVDFGGLFDEPETTEGPVFGPPSKAEASGVGFMAFSSESDPEEIDDSDLPVSVERCLGHFTKHEILSDDNAWNCENCSKNLKLQRLREKRKSNEDESRSSNTSNGWVKENEDEGFGETEILAVKQDPNDTSCVKDHSSDGRKAARIHSADESESKGTQDEDEDSEKVITVKRDATKKVLINKAPPVLTIHLKRFSQDLRGRLSKLNGHVAFKEVIDLRQYMDSRCSGEDPPVYRLAGLVEHSGTMRGGHYVAYVRGGQRVKETDSSSTAWYNVSDAYVRQVSLEKVLHSEAYILFYERIFSQE
B3: G6PD6, glucose-6-phosphate dehydrogenase 6 (protein, UniProt Q9FJI5 1-515, looked up)
Glucose-6-phosphate 1-dehydrogenase 6, cytoplasmic: MGSGQWHVEKRSTFRNDSFVREYGIVPETGCLSIIVLGASGDLAKKKTFPALFNLYRQGFLNPDEVHIFGYARTKISDEELRDRIRGYLVDEKNAEQAEALSKFLQLIKYVSGPYDAEEGFQRLDKAISEHEISKNSTEGSSRRLFYLALPPSVYPSVCKMIKTCCMNKSDLGGWTRIVVEKPFGKDLESAEQLSSQIGELFDESQIYRIDHYLGKELVQNMLVLRFANRFFLPLWNRDNIENVQIVFREDFGTEGRGGYFDEYGIIRDIIQNHLLQVLCLVAMEKPISLKPEHIRDEKVKVLQSVVPISDDEVVLGQYEGYRDDDTVPNDSNTPTFATTILRIHNERWEGVPFILKAGKALNSRKAEIRIQFKDVPGDIFRCQKQGRNEFVIRLQPSEAMYMKLTVKQPGLDMNTVQSELDLSYGQRYQGVAIPEAYERLILDTIKGDQQHFVRRDELKVAWEIFTPLLHRIDKGEVKSIPYKPGSRGPKEADQLLEKAGYLQTHGYIWIPPTL
B4: ADF6 (protein, UniProt Q9ZSK2 1-146, looked up)
Actin-depolymerizing factor 6: MSFRGLSRPNAISGMGVADESKTTFLELQRKKTHRYVVFKIDESKKEVVVEKTGNPTESYDDFLASLPDNDCRYAVYDFDFVTSENCQKSKIFFFAWSPSTSGIRAKVLYSTSKDQLSRELQGIHYEIQATDPTEVDLEVLRERAN
B5: LON2, lon protease 2 (protein, UniProt O64948 1-888, looked up)
Lon protease homolog 2, peroxisomal: MAETVELPSRLAILPFRNKVLLPGAIIRIRCTSHSSVTLVEQELWQKEEKGLIGILPVRDDAEGSSIGTMINPGAGSDSGERSLKFLVGTTDAQKSDAKDQQDLQWHTRGVAARALHLSRGVEKPSGRVTYVVVLEGLSRFNVQELGKRGPYSVARITSLEMTKAELEQVKQDPDFVALSRQFKTTAMELVSVLEQKQKTGGRTKVLLETVPIHKLADIFVASFEMSFEEQLSMLDSVDLKVRLSKATELVDRHLQSIRVAEKITQKVEGQLSKSQKEYLLRQQMRAIKEELGDNDDDEDDVAALERKMQAAGMPSNIWKHAQRELRRLKKMQPQQPGYNSSRVYLELLADLPWDKASEEHELDLKAAKERLDSDHYGLAKVKQRIIEYLAVRKLKPDARGPVLCFVGPPGVGKTSLASSIAAALGRKFVRLSLGGVKDEADIRGHRRTYIGSMPGRLIDGLKRVGVCNPVMLLDEIDKTGSDVRGDPASALLEVLDPEQNKSFNDHYLNVPYDLSKVVFVATANRVQPIPPPLLDRMELIELPGYTQEEKLKIAMRHLIPRVLDQHGLSSEFLKIPEAMVKNIIQRYTREAGVRSLERNLAALARAAAVMVAEHEQSLPLSKDVQKLTSPLLNGRMAEGGEVEMEVIPMGVNDHEIGGTFQSPSALVVDETMLEKILGPPRFDDSEAADRVASAGVSVGLVWTTFGGEVQFVEATSMVGKGEMHLTGQLGDVIKESAQLALTWVRARASDFKLALAGDMNVLDGRDIHIHFPAGAVPKDGPSAGVTLVTALVSLFSQKRVRADTAMTGEMTLRGLVLPVGGIKDKILAAHRYGIKRVILPQRNSKDLVEVPAAVLSSLEVILAKRMEDVLENAFEGGCPWRNNYSKL
B6: ISU1, SufE/NifU family protein (protein, UniProt O49627 51-167, looked up)
Iron-sulfur cluster assembly protein 1: PNVGTGLVGAPACGDVMKLQIKVDEKTGQIVDARFKTFGCGSAIASSSVATEWVKGKAMEDVLTIKNTEIAKHLSLPPVKLHCSMLAEDAIKAAVKDYKEKRVKTNGAAAAGETTQA
B7: NSP5, nitrile specifier protein 5 (protein, UniProt Q93XW5 1-326, looked up)
Thiohydroximate-O-sulfate sulfur/sulfate-lyase (nitrile-forming) NSP5: MCPVENKWLKVGQKGAGPGARSSHAMTVVGNKVYCFGGELKPTIHIDNDLYVFDLETQEWSIAPATGEAPFPCFGVSMVTIGSTIYVYGGRDDKRRYNGLHSYDTETNEWKLLAPVEEGLPGRSYHSMAGDDRKVYVFGGVTAKGRVNTLHAYDVVDQKWVEYPAAGEACKGRGAPGLVVVEGRIWVLFGFDGNELGDIHCFDLASEQWKAVETTGDVPAARSVFPAVSYGKYIVIYGGEEEPHELMHMGAGKMSGEVYQLDTETLVWERIVCGNEEEKPSQRGWCAFTKAVKDGEEGLLVHGGNSPTNERLDDLVFWGFSHLNVN
B8: UGT85A1, UDP-Glycosyltransferase superfamily protein (protein, UniProt Q9SK82 1-489, looked up)
UDP-glycosyltransferase 85A1: MGSQIIHNSQKPHVVCVPYPAQGHINPMMRVAKLLHARGFYVTFVNTVYNHNRFLRSRGSNALDGLPSFRFESIADGLPETDMDATQDITALCESTMKNCLAPFRELLQRINAGDNVPPVSCIVSDGCMSFTLDVAEELGVPEVLFWTTSGCAFLAYLHFYLFIEKGLCPLKDESYLTKEYLEDTVIDFIPTMKNVKLKDIPSFIRTTNPDDVMISFALRETERAKRASAIILNTFDDLEHDVVHAMQSILPPVYSVGPLHLLANREIEEGSEIGMMSSNLWKEEMECLDWLDTKTQNSVIYINFGSITVLSVKQLVEFAWGLAGSGKEFLWVIRPDLVAGEEAMVPPDFLMETKDRSMLASWCPQEKVLSHPAIGGFLTHCGWNSILESLSCGVPMVCWPFFADQQMNCKFCCDEWDVGIEIGGDVKREEVEAVVRELMDGEKGKKMREKAVEWQRLAEKATEHKLGSSVMNFETVVSKFLLGQKSQD
B9: ARD3, acireductone dioxygenase 3 (protein, UniProt Q8W108 1-199, looked up)
Acireductone dioxygenase 3: MGEVVKDGREEVIQAWYMDDSEEDQRLPHHKDPKEFLSLDKLAELGVLSWRLDADNYETDEDLKKIRESRGYSYMDFCEVCPEKLPNYEVKVKSFFEEHLHTDEEIRYCVAGSGYFDVRDRNEAWIRVWVKKGGMIVLPAGIYHRFTVDSDNYIKAMRLFVGEPVWTPYNRPHDHLPARKEYIDNFVKVNEGGVIDASA

Biological target: sim3-GFP (Arabidopsis thaliana) (UniProt P93002)
Assay: sim3-GFP IP, LC-MS/MS

Chain of sim3-GFP (Arabidopsis thaliana) (P93002 other isoform, or with tags, fused parts or gaps): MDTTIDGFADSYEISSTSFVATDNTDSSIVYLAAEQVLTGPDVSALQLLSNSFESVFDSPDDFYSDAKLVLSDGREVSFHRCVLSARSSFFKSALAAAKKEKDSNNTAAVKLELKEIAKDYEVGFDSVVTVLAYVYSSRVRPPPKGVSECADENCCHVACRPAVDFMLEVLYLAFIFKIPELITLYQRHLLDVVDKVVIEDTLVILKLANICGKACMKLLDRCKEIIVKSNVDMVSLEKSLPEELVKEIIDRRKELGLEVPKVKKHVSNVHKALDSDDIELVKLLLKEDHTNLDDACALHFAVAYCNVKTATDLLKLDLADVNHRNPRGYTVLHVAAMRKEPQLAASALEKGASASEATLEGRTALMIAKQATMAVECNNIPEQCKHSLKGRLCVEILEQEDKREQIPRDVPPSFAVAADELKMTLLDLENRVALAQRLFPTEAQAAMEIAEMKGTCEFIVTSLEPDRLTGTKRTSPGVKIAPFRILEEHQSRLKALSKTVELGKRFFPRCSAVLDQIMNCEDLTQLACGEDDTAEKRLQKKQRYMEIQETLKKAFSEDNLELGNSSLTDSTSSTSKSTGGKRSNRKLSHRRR

In order of falling Normalized Fold Change: SA vs Mock:
1. B7  5240 fold
2. B1  8.99 fold
3. B9  8.57 fold
4. B8  4.86 fold
5. B3  4.1 fold
6. B6  3.44 fold
7. B5  2.47 fold
8. B2  2.31 fold
9. B4  2.26 fold
